From paper doi:10.1101/2025.08.06.668938 (bioRxiv, 2025)

Molecular target: T1, TNF-α (Homo sapiens, UniProt P01375, biotinylated (said of the BLI experiment))
T1 construct: TNF-α, a pro-inflammatory cytokine, target of adalimumab; also called Purified TNF-α; biotinylated TNF-α; source: bought: Acro Biosciences (Cat #TNA-H82E3, Lot #BV2043-241DF11R8)
Test: ELISA; screening ELISA; antigen coated at 1 µg/mL (30 ng/well) in bicarbonate coating buffer on 384-well MaxiSorp overnight at 4°C; blocked with 4% milk in PBS; antibody at 1 µg/mL in PBS, 2 h at room temperature; goat anti-human IgG Fc-HRP, TMB, absorbance at 450 nm
Conditions: both partners purified

T1 sequence (P01375 77-233): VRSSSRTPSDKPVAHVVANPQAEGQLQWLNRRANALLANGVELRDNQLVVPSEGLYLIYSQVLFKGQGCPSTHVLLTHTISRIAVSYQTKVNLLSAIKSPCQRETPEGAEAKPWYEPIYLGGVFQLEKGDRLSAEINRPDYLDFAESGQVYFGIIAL

| binding result | Binder |
| --- | --- |
| binds | adalimumab VH paired with LICHEN-2 light sequence (pairing_CDRs) (antibody, V domains shown, as the VH of m3 (native VH of adalimumab); Whole antibody; also called LICHEN-2 (adalimumab)) VH: not shown VL: DIQMTQSPSFVSASVGDRVTITCRASQGIRNYLAWYQQKPGKAPEVLISAASTLQSGVPSRFSGSGSGTEFTLTITNLQPEDSATYFCQRYNRAPYTFGQGTRLDIK |
| binds | adalimumab VH paired with germline IGKV7-3*01/IGKJ1*01 with the adalimumab light CDRs grafted (antibody, V domains shown, as the VH of m3 (native VH of adalimumab); germline V-gene IGKV7-3*01 combined with J-gene IGKJ1*01, all three light CDRs of adalimumab (Kabat definition) grafted; Whole antibody; also called Germline-3+ (adalimumab)) VH: not shown VL: DIVLTQSPASLAVSPGQRATITCRASQGIRNYLAWYQQKPGQPPKLLIYAASTLQSGVPARFSGSGSGTDFTLTINPVEANDTANYYCQRYNRAPYTFGQGTKVEIK |
| binds | adalimumab VH paired with LICHEN-3 light sequence (pairing_CDRs) (antibody, V domains shown, as the VH of m3 (native VH of adalimumab); Whole antibody; also called LICHEN-3 (adalimumab)) VH: not shown VL: DIVMTQTPPSSPVTLGQPASISCRASQGIRNYLAWYQQKPGQSPKLLISAASTLQSGVPSRFSGSGSGTDFTLKISSLQPEDVATYYCQRYNRAPYTFGQGTKLEIK |
| binds | adalimumab VH paired with LICHEN-5 light sequence (pairing_CDRs) (antibody, V domains shown, as the VH of m3 (native VH of adalimumab); Whole antibody; also called LICHEN-5 (adalimumab)) VH: not shown VL: EIVLTQSPATLSLSPGERATLSCRASQGIRNYLAWYQQKPGQAPRLLIYAASTLQSGIPARFSGSGSGTDFTLTISSLEPEDFAVYYCQRYNRAPYTFGQGTKLEIK |

Molecular target: T2, Human PD-1 (human, UniProt Q15116)
T2 construct: programmed death receptor 1 (PD-1), human, target of pembrolizumab; The printed catalogue number is that of the TNF-α product, probably a slip; also called programmed death receptor 1; Target (pembrolizumab panels); source: bought: Acro Biosciences (printed Cat #TNA-H82E3, Lot #BV2043-241DF1-1R8)
Test: as above
Conditions: both partners purified

T2 sequence (Q15116 25-170): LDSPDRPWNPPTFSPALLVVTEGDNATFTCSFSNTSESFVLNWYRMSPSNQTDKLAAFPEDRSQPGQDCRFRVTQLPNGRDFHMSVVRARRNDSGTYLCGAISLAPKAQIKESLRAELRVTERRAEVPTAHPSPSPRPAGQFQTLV

| binding result | Binder |
| --- | --- |
| binds | pembrolizumab (antibody, V domains shown, native VH of the therapeutic pembrolizumab (humanised, IGHV1); Whole antibody (detected by anti-human IgG Fc); also called therapeutic; positive control (pembrolizumab panels)) VH: QVQLVQSGVEVKKPGASVKVSCKASGYTFTNYYMYWVRQAPGQGLEWMGGINPSNGGTNFNEKFKNRVTLTTDSSTTTAYMELKSLQFDDTAVYYCARRDYRFDMGFDYWGQGTTVTVSS VL: EIVLTQSPATLSLSPGERATLSCRASKGVSTSGYSYLHWYQQKPGQAPRLLIYLASYLESGVPARFSGSGSGTDFTLTISSLEPEDFAVYYCQHSRDLPLTFGGGTKVEIK |
| binds | pembrolizumab VH paired with germline IGKV3-20*01/IGKJ1*01 with the pembrolizumab light CDRs grafted (antibody, V domains shown, as the VH of m13 (native VH of pembrolizumab); germline V-gene IGKV3-20*01 combined with J-gene IGKJ1*01, all three light CDRs of pembrolizumab (Kabat definition) grafted; Whole antibody; also called Germline-1+ (pembrolizumab)) VH: QVQLVQSGVEVKKPGASVKVSCKASGYTFTNYYMYWVRQAPGQGLEWMGGINPSNGGTNFNEKFKNRVTLTTDSSTTTAYMELKSLQFDDTAVYYCARRDYRFDMGFDYWGQGTTVTVSS VL: EIVLTQSPGTLSLSPGERATLSCRASKGVSTSGYSYLHWYQQKPGQAPRLLIYLASYLESGIPDRFSGSGSGTDFTLTISRLEPEDFAVYYCQHSRDLPLTFGQGTKVEIK |
| binds | pembrolizumab VH paired with germline IGKV7-3*01/IGKJ1*01 with the pembrolizumab light CDRs grafted (antibody, V domains shown, as the VH of m13 (native VH of pembrolizumab); germline V-gene IGKV7-3*01 combined with J-gene IGKJ1*01, all three light CDRs of pembrolizumab (Kabat definition) grafted; Whole antibody; also called Germline-3+ (pembrolizumab)) VH: QVQLVQSGVEVKKPGASVKVSCKASGYTFTNYYMYWVRQAPGQGLEWMGGINPSNGGTNFNEKFKNRVTLTTDSSTTTAYMELKSLQFDDTAVYYCARRDYRFDMGFDYWGQGTTVTVSS VL: DIVLTQSPASLAVSPGQRATITCRASKGVSTSGYSYLHWYQQKPGQPPKLLIYLASYLESGVPARFSGSGSGTDFTLTINPVEANDTANYYCQHSRDLPLTFGQGTKVEIK |
| binds | pembrolizumab VH paired with germline IGKV3-11*01/IGKJ1*01 with the pembrolizumab light CDRs grafted (antibody, V domains shown, as the VH of m13 (native VH of pembrolizumab); germline V-gene IGKV3-11*01 combined with J-gene IGKJ1*01, all three light CDRs of pembrolizumab (Kabat definition) grafted; Whole antibody; also called Germline-2+ (pembrolizumab)) VH: QVQLVQSGVEVKKPGASVKVSCKASGYTFTNYYMYWVRQAPGQGLEWMGGINPSNGGTNFNEKFKNRVTLTTDSSTTTAYMELKSLQFDDTAVYYCARRDYRFDMGFDYWGQGTTVTVSS VL: EIVLTQSPATLSLSPGERATLSCRASKGVSTSGYSYLHWYQQKPGQAPRLLIYLASYLESGIPARFSGSGSGTDFTLTISSLEPEDFAVYYCQHSRDLPLTFGQGTKVEIK |
